Consider five sequences from the supplement of paper PMC5998384.

Data set [1] relates to HeLa Kyoto. Put plainly: solubility in G1/S (NP-40 vs SDS abundance) (log2 ratio); higher = more soluble. As to conditions: cell cycle stage: G1/S.
In data set [2] the test system is HeLa Kyoto. Put plainly: melting temperature (median over replicates), in situ; higher = more thermally stable.
Data set [3] has as its system HeLa Kyoto. The experiment in a line: solubility change mitosis vs G1/S (difference of NP-40 vs SDS log2 ratios) (log2 ratio difference); higher = more soluble in mitosis.
For data set [4], the system named is HeLa Kyoto. Put plainly: thermal stability score vs G1/S (z-score of summed log2 fold changes over temperatures); higher = more thermally stable than in G1/S.
Where [5] appears, read: cell cycle stage: early G1 (4.5 h after nocodazole release).
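Wherever melting temperature (median over replicates), in situ is given: HeLa Kyoto cells synchronized by double thymidine or nocodazole block, proteins quantified by TMT10plex mass spectrometry, three independent biological replicates.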
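Wherever solubility change mitosis vs G1/S (difference of NP-40 vs SDS log2 ratios) is given: synchronized HeLa Kyoto cells (double thymidine block for G1/S, nocodazole release for mitosis), protein amounts in NP-40 versus SDS lysates quantified by mass spectrometry, three biological replicates.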
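Wherever solubility in G1/S (NP-40 vs SDS abundance) is given: HeLa Kyoto cells arrested at G1/S by double thymidine block, proteins quantified by TMT10plex mass spectrometry in mild NP-40 versus SDS extracts, three biological replicates.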
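Wherever thermal stability score vs G1/S (z-score of summed log2 fold changes over temperatures) is given: synchronized HeLa Kyoto cells, proteins quantified by TMT10plex mass spectrometry, three biological replicates, mitosis taken 0.5 h after nocodazole release, G1/S directly after double thymidine block.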

Consider “MSSLHKSRIADFQDVLKEPSIALEKLRELSFSGIPCEGGLRCLCWKILLNYLPLERASWTSILAKQRELYAQFLREMIIQPGIAKANMGVSREDVTFEDHPLNPNPDSRWNTYFKDNEVLLQIDKDVRRLCPDISFFQRATDYPCLLILDPQNEFETLRKRVEQTTLKSQTVARNRSGVTNMSSPHKNSVPSSLNEYEVLPNGCEAHWEVVERILFIYAKLNPGIAYVQGMNEIVGPLYYTFATDPNSEWKEHAEADTFFCFTNLMAEIRDNFIKSLDDSQCGITYKMEKVYSTLKDKDVELYLKLQEQNIKPQFFAFRWLTLLLSQEFLLPDVIRIWDSLFADDNRFDFLLLVCCAMLMLIREQLLEGDFTVNMRLLQDYPITDVCQILQKAKELQDSK [TBC1D13]”, for which, in data set [1], the “solubility in G1/S (log2)” value stood at 0.0698. Moreover, the results for the melting temperature in data set [2] (cell cycle stage: G1/S) and in data set [2] (cell cycle stage: mitosis) were 53.2 °C and 54.1 °C, respectively. Besides, the “solubility change mitosis (log2)” value in data set [3] was -0.145. For the same sequence, the thermal stability score was -0.565 in data set [4] (setting [5]) and 0.385 in data set [4] (cell cycle stage: mitosis).

For “MSSLSGKVQTVLGLVEPSKLGRTLTHEHLAMTFDCCYCPPPPCQEAISKEPIVMKNLYWIQKNAYSHKENLQLNQETEAIKEELLYFKANGGGALVENTTTGISRDTQTLKRLAEETGVHIISGAGFYVDATHSSETRAMSVEQLTDVLMNEILHGADGTSIKCGIIGEIGCSWPLTESERKVLQATAHAQAQLGCPVIIHPGRSSRAPFQIIRILQEAGADISKTVMSHLDRTILDKKELLEFAQLGCYLEYDLFGTELLHYQLGPDIDMPDDNKRIRRVRLLVEEGCEDRILVAHDIHTKTRLMKYGGHGYSHILTNVVPKMLLRGITENVLDKILIENPKQWLTFK [PTER]”, the “solubility in G1/S (log2)” value in data set [1] was found to be 0.0448. Further, the melting temperature was 56.8 °C in data set [2] (cell cycle stage: G1/S) and 57 °C in data set [2] (cell cycle stage: mitosis). In data set [3], the “solubility change mitosis (log2)” value was -0.0354. The thermal stability score was -2.92 in data set [4] (setting [5]) and -0.753 in data set [4] (cell cycle stage: mitosis).

With “MSSPQAPEDGQGCGDRGDPPGDLRSVLVTTVLNLEPLDEDLFRGRHYWVPAKRLFGGQIVGQALVAAAKSVSEDVHVHSLHCYFVRAGDPKLPVLYQVERTRTGSSFSVRSVKAVQHGKPIFICQASFQQAQPSPMQHQFSMPTVPPPEELLDCETLIDQYLRDPNLQKRYPLALNRIAAQEVPIEIKPVNPSPLSQLQRMEPKQMFWVRARGYIGEGDMKMHCCVAAYISDYAFLGTALLPHQWQHKVHFMVSLDHSMWFHAPFRADHWMLYECESPWAGGSRGLVHGRLWRQDGVLAVTCAQEGVIRVKPQVSESKL [ACOT8]”, in data set [1], the “solubility in G1/S (log2)” value was -0.0523. In addition, the melting temperature was found to be 51.9 °C in data set [2] (cell cycle stage: G1/S) and 53.8 °C in data set [2] (cell cycle stage: mitosis). Moreover, the “solubility change mitosis (log2)” value in data set [3] was -0.588. The thermal stability score in data set [4] (setting [5]) was 0.114; in data set [4] (cell cycle stage: mitosis), -0.515.

Consider “MSSRIARALALVVTLLHLTRLALSTCPAACHCPLEAPKCAPGVGLVRDGCGCCKVCAKQLNEDCSKTQPCDHTKGLECNFGASSTALKGICRAQSEGRPCEYNSRIYQNGESFQPNCKHQCTCIDGAVGCIPLCPQELSLPNLGCPNPRLVKVTGQCCEEWVCDEDSIKDPMEDQDGLLGKELGFDASEVELTRNNELIAVGKGSSLKRLPVFGMEPRILYNPLQGQKCIVQTTSWSQCSKTCGTGISTRVTNDNPECRLVKETRICEVRPCGQPVYSSLKKGKKCSKTKKSPEPVRFTYAGCLSVKKYRPKYCGSCVDGRCCTPQLTRTVKMRFRCEDGETFSKNVMMIQSCKCNYNCPHANEAAFPFYRLFNDIHKFRD [CYR61]”, for which the “solubility in G1/S (log2)” value in data set [1] was -0.183. The melting temperature in data set [2] (cell cycle stage: G1/S) worked out at 52.8 °C; in data set [2] (cell cycle stage: mitosis), 54.1 °C. Also, in data set [3], the “solubility change mitosis (log2)” value was -0.133. Further, the figures for the thermal stability score in data set [4] (setting [5]) and in data set [4] (cell cycle stage: mitosis) were 5.63 and 3.33, respectively.

As to “MSSSVRRKGKPGKGGGKGSSRGGRGGRSHASKSHGSGGGGGGGGGGGGGNRKASSRIWDDGDDFCIFSESRRPSRPSNSNISKGESRPKWKPKAKVPLQTLHMTSENQEKVKALLRDLQEQDADAGSERGLSGEEEDDEPDCCNDERYWPAGQEPSLVPDLDPLEYAGLASVEPYVPEFTVSPFAVQKLSRYGFNTERCQAVLRMCDGDVGASLEHLLTQCFSETFGERMKISEAVNQISLDECMEQRQEEAFALKSICGEKFIERIQNRVWTIGLELEYLTSRFRKSKPKESTKNVQENSLEICKFYLKGNCKFGSKCRFKHEVPPNQIVGRIERSVDDSHLNAIEDASFLYELEIRFSKDHKYPYQAPLVAFYSTNENLPLACRLHISEFLYDKALTFAETSEPVVYSLITLLEEESEIVKLLTNTHHKYSDPPVNFLPVPSRTRINNPACHKTVIPNNSFVSNQIPEVEKASESEESDEDDGPAPVIVENESYVNLKKKISKRYDWQAKSVHAENGKICKQFRMKQASRQFQSILQERQSLPAWEERETILNLLRKHQVVVISGMTGCGKTTQIPQFILDDSLNGPPEKVANIICTQPRRISAISVAERVAKERAERVGLTVGYQIRLESVKSSATRLLYCTTGVLLRRLEGDTALQGVSHIIVDEVHERTEESDFLLLVLKDIVSQRPGLQVILMSATLNAELFSDYFNSCPVITIPGRTFPVDQFFLEDAIAVTRYVLQDGSPYMRSMKQISKEKLKARRNRTAFEEVEEDLRLSLHLQDQDSVKDAVPDQQLDFKQLLARYKGVSKSVIKTMSIMDFEKVNLELIEALLEWIVDGKHSYPPGAILVFLPGLAEIKMLYEQLQSNSLFNNRRSNRCVIHPLHSSLSSEEQQAVFVKPPAGVTKIIISTNIAETSITIDDVVYVIDSGKMKEKRYDASKGMESLEDTFVSQANALQRKGRAGRVASGVCFHLFTSHHYNHQLLKQQLPEIQRVPLEQLCLRIKILEMFSAHNLQSVFSRLIEPPHTDSLRASKIRLRDLGALTPDERLTPLGYHLASLPVDVRIGKLMLFGSIFRCLDPALTIAASLAFKSPFVSPWDKKEEANQKKLEFAFANSDYLALLQAYKGWQLSTKEGVRASYNYCRQNFLSGRVLQEMASLKRQFTELLSDIGFAREGLRAREIEKRAQGGDGVLDATGEEANSNAENPKLISAMLCAALYPNVVQVKSPEGKFQKTSTGAVRMQPKSAELKFVTKNDGYVHIHPSSVNYQVRHFDSPYLLYHEKIKTSRVFIRDCSMVSVYPLVLFGGGQVNVQLQRGEFVVSLDDGWIRFVAASHQVAELVKELRCELDQLLQDKIKNPSIDLCTCPRGSRIISTIVKLVTTQ [DHX57]”, the “solubility in G1/S (log2)” value in data set [1] is -0.884. Further, the melting temperature turned out to be 53 °C in data set [2] (cell cycle stage: G1/S) and 51.9 °C in data set [2] (cell cycle stage: mitosis). The “solubility change mitosis (log2)” value in data set [3] was 0.223. The thermal stability score in data set [4] (setting [5]) was -0.0848; in data set [4] (cell cycle stage: mitosis), -0.271.
